Results from article PMC3946754, “Two-Stage pH Control Strategy Based on the pH Preference of Acetoin Reductase Regulates Acetoin and 2,3-Butanediol Distribution in Bacillus subtilis” (PLoS ONE, 2014).

Columns and labels:
purified protein = substrate: CC(O)C(C)O; assay: purified protein; conditions: oxidation, co-substrate NAD+ (standard assay 1.2 mM NAD+, pH 8.5, 25°C preincubation), stereoisomer not told, printed kcat/Km does not fit kcat and Km
[1] = substrate: NC(=O)c1ccc[n+]([C@@H]2O[C@H](COP(=O)(O)OP(=O)(O)OC[C@H]3O[C@@H](n4cnc5c(N)ncnc54)[C@H](O)[C@@H]3O)[C@@H](O)[C@H]2O)c1; assay: NAD+ reduction assay, Lineweaver-Burk plot; type: biochemical, Bacillus subtilis; conditions: oxidation, co-substrate 2,3-butanediol (standard assay 10 mM, pH 8.5), printed kcat/Km does not fit kcat and Km, varied: cofactor
[2] = substrate: CC(=O)C(C)O; assay: NADH oxidation assay, Lineweaver-Burk plot; type: biochemical, Bacillus subtilis; conditions: reduction, co-substrate NADH (standard assay 0.2 mM NADH, PBS pH 6.5, 25°C preincubation), stereoisomer not told, 25.0 °C
[3] = substrate: NC(=O)C1=CN([C@@H]2O[C@H](COP(=O)(O)OP(=O)(O)OC[C@H]3O[C@@H](n4cnc5c(N)ncnc54)[C@H](O)[C@@H]3O)[C@@H](O)[C@H]2O)C=CC1; assay: NADH oxidation assay, Lineweaver-Burk plot; type: biochemical, Bacillus subtilis; conditions: reduction, co-substrate acetoin (standard assay 10 mM, pH 6.5), printed kcat/Km does not fit kcat and Km, varied: cofactor

B1: AR/BDH (acetoin reductase/2,3-butanediol dehydrogenase) (Bacillus subtilis subsp. subtilis str. 168) (protein)
chain: MKAARWHNQKDIRIEHIEEPKTEPGKVKIKVKWCGICGSDLHEYLGGPIFIPVDKPHPLTNETAPVTMGHEFSGEVVEVGEGVENYKVGDRVVVEPIFATHGHQGAYNLDEQMGFLGLAGGGGGFSEYVSVDEELLFKLPDELSYEQGALVEPSAVALYAVRSSKLKAGDKAAVFGCGPIGLLVIEALKAAGATDIYAVELSPERQQKAEELGAIIVDPSKTDDVVAEIAERTGGGVDVAFEVTGVPVVLRQAIQSTTIAGETVIVSIWEKGAEIHPNDIVIKERTVKGIIGYRDIFPAVLSLMKEGYFSADKLVTKKIVLDDLIEEGFGALIKEKSQVKILVRPN
notes: full length, C-terminal His6 tag (from primer, not reported cut); pMA5-bdhA expressed in B. subtilis JNA 3-10; Ni-NTA and Superdex 200; subunit 38-39 kDa by SDS-PAGE
B1 gave a Km (purified protein) of 260 ± 9 µM, a Vmax (purified protein) of 2.34 µM/min and a kcat (purified protein) of 0.00233 s⁻¹. The Km [1] was 80 ± 2 µM, the Vmax [1] was 14 µM/min and the kcat [1] was 0.0232 ± 0.000267 s⁻¹. For the same protein, the Km [2] was 160 ± 5 µM, the Vmax [2] was 5.54 µM/min and the kcat [2] was 0.00567 ± 0.0002 s⁻¹. It also gave a kcat/Km [2] of 35.5 M⁻¹ s⁻¹, a Km [3] of 40 ± 1 µM and a Vmax [3] of 14.2 µM/min. The kcat [3] was 0.0235 ± 0.00035 s⁻¹.
